Literature values, collected in publication PMC5423825.

Biological target: CFluc398 (FGG-tagged C-terminal firefly luciferase fragment) CFluc398 (Photinus pyralis) [luciferase: P08659]

Kd: 112 µM
Substance: NFluc437 (FGG-tagged N-terminal firefly luciferase fragment) NFluc437 (from UniProt P08659)
